Assay results published in patent EP4279092A1 (Bayer AG, dated 2023).

B1: Ac-225-macropa-Pelgifatamab (CAR 0.8) (antibody, V domains shown)
VH: QVQLVESGGGVVQPGRSLRLSCAASGFAFSRYGMHWVRQAPGKGLEWVAVIWYDGSNKYYADSVKGRFTISRDNSKNTQYLQMNSLRAEDTAVYYCARGGDFLYYYYYGMDVWGQGTTVTVSS
VL: DIQMTQSPSSLSASVGDRVTITCRASQGISNYLAWYQQKTGKVPKFLIYEASTLQSGVPSRFSGGGSGTDFTLTISSLQPEDVATYYCQNYNSAPFTFGPGTKVDIKR
modifications: macropa chelator complexing 225Ac, coupled via thiourea to the terminal amino group of a Lysine residue; chelator-to-antibody ratio 0.8; chain and position not stated
B2: Ac-225-DOTA-Pelgifatamab CAR 5.7 (antibody, V domains shown)
VH: B1 VH
VL: B1 VL
modifications: p-SCN-Bn-DOTA chelator complexing 225Ac, coupled to the terminal amino group of Lysine residues; chelator-to-antibody ratio 5.7; chain and positions not stated
B3: Ac-225-DOTA-Pelgifatamab CAR 12.7 (antibody, V domains shown)
VH: B1 VH
VL: B1 VL
modifications: p-SCN-Bn-DOTA chelator complexing 225Ac, coupled to the terminal amino group of Lysine residues; chelator-to-antibody ratio 12.7; chain and positions not stated

Target: prostate-specific membrane antigen (PSMA) on prostate cancer cell lines (human, UniProt Q04609 1-750)
Sequence (Q04609 whole entry): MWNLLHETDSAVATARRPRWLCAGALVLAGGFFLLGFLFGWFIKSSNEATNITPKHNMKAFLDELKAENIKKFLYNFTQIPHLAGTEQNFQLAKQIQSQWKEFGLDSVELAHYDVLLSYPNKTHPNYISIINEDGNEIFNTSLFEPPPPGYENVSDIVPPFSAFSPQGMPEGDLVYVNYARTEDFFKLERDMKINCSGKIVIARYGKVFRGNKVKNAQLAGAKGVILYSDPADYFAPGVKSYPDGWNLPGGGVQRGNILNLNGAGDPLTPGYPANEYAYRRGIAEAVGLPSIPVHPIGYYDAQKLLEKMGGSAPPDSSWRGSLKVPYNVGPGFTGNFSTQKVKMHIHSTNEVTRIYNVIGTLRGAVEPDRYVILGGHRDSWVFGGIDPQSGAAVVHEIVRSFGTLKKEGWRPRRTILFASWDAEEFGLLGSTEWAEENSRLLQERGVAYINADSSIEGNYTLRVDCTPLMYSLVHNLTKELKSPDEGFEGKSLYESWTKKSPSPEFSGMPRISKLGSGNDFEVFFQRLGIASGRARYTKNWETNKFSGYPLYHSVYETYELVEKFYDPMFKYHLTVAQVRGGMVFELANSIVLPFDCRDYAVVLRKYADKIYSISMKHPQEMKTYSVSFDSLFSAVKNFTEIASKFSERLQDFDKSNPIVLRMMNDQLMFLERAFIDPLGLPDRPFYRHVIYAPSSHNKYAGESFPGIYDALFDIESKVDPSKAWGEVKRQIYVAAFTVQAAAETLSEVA
Assay: cell-based or functional assay

| Binder | IC50, in-vitro cytotoxicity (CellTiterGlo), C4-2 cells [kBq/ml] | IC50, in-vitro cytotoxicity (CellTiterGlo), MDA-PCa-2b cells [kBq/ml] |
| --- | --- | --- |
| B1 | 0.09 | 0.05 |
| B2 | 0.15 | 0.09 |
| B3 | 0.29 | 0.2 |
